This passage reports percent inhibition of THP-1 adhesion to GP Ibα results from PMC2193258.

Assay [1] concerns the target glycocalicin (the soluble extracellular domain of platelet glycoprotein Ibα) (human) (UniProt P07359). Nature of the assay: cell adhesion assay, competition.
In assay [2] the target is Mac-1 (αMβ2, CD11b/CD18) on THP-1 monocytic cells (human (endogenous in THP-1)), P11215. Nature of the assay: cell adhesion assay, competition. As to conditions: remark: other sources report otherwise.

UniProt P07359, sequence (P07359 17-531): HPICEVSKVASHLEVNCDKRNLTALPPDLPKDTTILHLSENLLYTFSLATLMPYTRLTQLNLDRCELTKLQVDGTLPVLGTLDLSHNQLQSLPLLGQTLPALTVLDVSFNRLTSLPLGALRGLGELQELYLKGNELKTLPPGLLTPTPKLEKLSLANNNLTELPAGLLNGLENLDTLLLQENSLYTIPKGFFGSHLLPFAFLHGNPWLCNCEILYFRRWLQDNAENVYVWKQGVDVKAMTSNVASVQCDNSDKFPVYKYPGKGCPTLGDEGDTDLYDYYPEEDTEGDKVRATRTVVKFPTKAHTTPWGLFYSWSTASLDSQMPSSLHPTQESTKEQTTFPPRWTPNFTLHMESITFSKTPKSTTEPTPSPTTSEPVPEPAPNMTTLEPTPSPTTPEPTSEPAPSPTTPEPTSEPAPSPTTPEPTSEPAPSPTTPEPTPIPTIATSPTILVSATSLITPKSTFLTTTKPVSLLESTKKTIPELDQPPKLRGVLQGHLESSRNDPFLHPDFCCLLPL

In assay [1], “39/34-kD dispase fragment of vWf encompassing the A1 domain (Leu480–Gly718) (domain or fragment)” came in with a percent inhibition of THP-1 adhesion to GP Ibα of 83%.

B1: human fibrinogen, P02671-2 20-644; P02675 31-491; P02679-2 27-437 (complex)
chain 1: ADSGEGDFLAEGGGVRGPRVVERHQSACKDSDWPFCSDEDWNYKCPSGCRMKGLIDEVNQDFTNRINKLKNSLFEYQKNNKDSHSLTTNIMEILRGDFSSANNRDNTYNRVSEDLRSRIEVLKRKVIEKVQHIQLLQKNVRAQLVDMKRLEVDIDIKIRSCRGSCSRALAREVDLKDYEDQQKQLEQVIAKDLLPSRDRQHLPLIKMKPVPDLVPGNFKSQLQKVPPEWKALTDMPQMRMELERPGGNEITRGGSTSYGTGSETESPRNPSSAGSWNSGSSGPGSTGNRNPGSSGTGGTATWKPGSSGPGSTGSWNSGSSGTGSTGNQNPGSPRPGSTGTWNPGSSERGSAGHWTSESSVSGSTGQWHSESGSFRPDSPGSGNARPNNPDWGTFEEVSGNVSPGTRREYHTEKLVTSKGDKELRTGKEKVTSGSTTTTRRSCSKTVTKTVIGPDGHKEVTKEVVTSEDGSDCPEAMDLGTLSGIGTLDGFRHRHPDEAAFFDTASTGKTFPGFFSPMLGEFVSETESRGSESGIFTNTKESSSHHPGIAEFPSRGKSSSYSKQFTSSTSYNRGDSTFESKSYKMADEAGSEADHEGTHSTKRGHAKSRPVRGIHTSPLGKPSLSP
chain 2: QGVNDNEEGFFSARGHRPLDKKREEAPSLRPAPPPISGGGYRARPAKAAATQKKVERKAPDAGGCLHADPDLGVLCPTGCQLQEALLQQERPIRNSVDELNNNVEAVSQTSSSSFQYMYLLKDLWQKRQKQVKDNENVVNEYSSELEKHQLYIDETVNSNIPTNLRVLRSILENLRSKIQKLESDVSAQMEYCRTPCTVSCNIPVVSGKECEEIIRKGGETSEMYLIQPDSSVKPYRVYCDMNTENGGWTVIQNRQDGSVDFGRKWDPYKQGFGNVATNTDGKNYCGLPGEYWLGNDKISQLTRMGPTELLIEMEDWKGDKVKAHYGGFTVQNEANKYQISVNKYRGTAGNALMDGASQLMGENRTMTIHNGMFFSTYDRDNDGWLTSDPRKQCSKEDGGGWWYNRCHAANPNGRYYWGGQYTWDMAKHGTDDGVVWMNWKGSWYSMRKMSMKIRPFFPQQ
chain 3: YVATRDNCCILDERFGSYCPTTCGIADFLSTYQTKVDKDLQSLEDILHQVENKTSEVKQLIKAIQLTYNPDESSKPNMIDAATLKSRKMLEEIMKYEASILTHDSSIRYLQEIYNSNNQKIVNLKEKVAQLEAQCQEPCKDTVQIHDITGKDCQDIANKGAKQSGLYFIKPLKANQQFLVYCEIDGSGNGWTVFQKRLDGSVDFKKNWIQYKEGFGHLSPTGTTEFWLGNEKIHLISTQSAIPYALRVELEDWNGRTSTADYAMFKVGPEADKYRLTYAYFAGGDAGDAFDGFDFGDDPSDKFFTSHNGMQFSTWDNDNDKFEGNCAEQDGSGWWMNKCHAGHLNGVYYQGGTYSKASTPNGYDNGIIWATWKTRWYSMKKTTMKIIPFNRLTIGEGQQHHLGGAKQAGDV
B1 registered a percent inhibition of THP-1 adhesion to GP Ibα in assay [2] of 99%.
